Test results: IntAct's records for PubMed 16762039

Biological target: hic1_human HIC1 (UniProt Q14526)
Sequence (Q14526 whole entry): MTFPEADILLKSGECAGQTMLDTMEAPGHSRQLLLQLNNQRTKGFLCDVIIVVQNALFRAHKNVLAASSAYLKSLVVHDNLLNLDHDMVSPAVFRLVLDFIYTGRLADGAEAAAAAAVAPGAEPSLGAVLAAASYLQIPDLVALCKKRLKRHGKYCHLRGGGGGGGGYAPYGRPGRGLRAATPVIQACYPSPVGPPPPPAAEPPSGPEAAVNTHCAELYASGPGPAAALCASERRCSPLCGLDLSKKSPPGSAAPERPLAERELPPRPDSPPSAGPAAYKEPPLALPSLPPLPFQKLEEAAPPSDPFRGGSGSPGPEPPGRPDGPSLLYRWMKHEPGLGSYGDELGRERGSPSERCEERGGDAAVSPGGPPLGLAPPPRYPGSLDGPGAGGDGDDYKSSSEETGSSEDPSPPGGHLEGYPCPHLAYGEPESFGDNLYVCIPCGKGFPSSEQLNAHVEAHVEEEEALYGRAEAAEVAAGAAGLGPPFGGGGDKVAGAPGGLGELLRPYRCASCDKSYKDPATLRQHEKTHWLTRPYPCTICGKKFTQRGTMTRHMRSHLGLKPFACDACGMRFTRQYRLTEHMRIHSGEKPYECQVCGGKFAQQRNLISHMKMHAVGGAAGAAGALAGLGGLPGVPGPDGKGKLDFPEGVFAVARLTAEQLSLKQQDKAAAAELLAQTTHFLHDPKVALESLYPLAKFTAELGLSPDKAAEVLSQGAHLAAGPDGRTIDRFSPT

Chain of C-terminal-binding protein 2 (Mus musculus), P56546 V72R (P56546 whole entry V72R): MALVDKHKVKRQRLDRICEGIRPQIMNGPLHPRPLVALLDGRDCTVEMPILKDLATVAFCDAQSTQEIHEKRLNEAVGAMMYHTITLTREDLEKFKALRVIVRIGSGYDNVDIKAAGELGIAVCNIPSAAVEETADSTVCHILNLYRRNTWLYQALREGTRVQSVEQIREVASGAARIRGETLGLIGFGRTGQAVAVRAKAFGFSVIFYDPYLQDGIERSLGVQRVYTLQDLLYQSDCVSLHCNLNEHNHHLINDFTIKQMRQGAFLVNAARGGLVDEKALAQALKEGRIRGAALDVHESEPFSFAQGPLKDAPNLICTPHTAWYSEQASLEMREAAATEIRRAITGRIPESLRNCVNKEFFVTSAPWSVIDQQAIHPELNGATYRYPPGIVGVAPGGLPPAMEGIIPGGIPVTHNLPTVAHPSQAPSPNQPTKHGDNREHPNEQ
Chain of C-terminal-binding protein 2 (Mus musculus), P56546 A58E (P56546 whole entry A58E): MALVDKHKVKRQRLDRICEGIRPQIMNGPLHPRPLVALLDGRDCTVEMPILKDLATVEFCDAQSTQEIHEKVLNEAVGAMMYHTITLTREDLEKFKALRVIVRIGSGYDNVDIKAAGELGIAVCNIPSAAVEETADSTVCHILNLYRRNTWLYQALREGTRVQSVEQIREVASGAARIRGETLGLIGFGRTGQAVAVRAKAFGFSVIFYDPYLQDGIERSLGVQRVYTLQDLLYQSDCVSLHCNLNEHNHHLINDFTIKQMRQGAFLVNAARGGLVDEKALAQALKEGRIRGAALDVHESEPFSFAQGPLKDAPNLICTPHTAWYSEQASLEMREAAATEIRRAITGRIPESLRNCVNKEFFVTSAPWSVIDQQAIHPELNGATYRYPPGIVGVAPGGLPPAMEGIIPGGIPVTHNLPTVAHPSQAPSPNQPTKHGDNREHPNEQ

Substance	effect of a mutation on the interaction
C-terminal-binding protein 2 (Mus musculus), P56546 A58E	disrupting interaction
C-terminal-binding protein 2 (Mus musculus), P56546 V72R	disrupting interaction
